Test results reported in PMC7768908 (2020).

Biological target: MT1-MMP cytoplasmic tail peptide (MMP-CTP) (Homo sapiens, Fe(II)-bound)
Experiment: ITC

- Kd: ~10 µM
B1: acireductone dioxygenase (Fe-HsARD) (protein)
chain: MVQAWYMDDAPGDPRQPHRPDPGRPVGLEQLRRLGVLYWKLDADKYENDPELEKIRRERNYSWMDIITICKDKLPNYEEKIKMFYEEHLHLDDEIRYILDGSGYFDVRDKEDQWIRIFMEKGDMVTLPAGIYHRFTVDEKNYTKAMRLFVGEPVWTAYNRPADHFEARGQYVKFLAQTA
